Source: PMC2944823, “Structural Basis for the Secretion of EvpC: A Key Type VI Secretion System Protein from Edwardsiella tarda” (PLoS ONE, 2010)
“And” between values parts separate entries of the source, which are not always exact repeats. Equal entries are not always repeated.

Key:
[1] = biological target: the molecule itself; assay: dynamic light scattering; DynaPro instrument, room temperature, EvpC at 6 mg/ml; polydispersity 5%
[2] = biological target: the molecule itself; assay: AUC; sedimentation velocity, ~2 mg/ml (methods: 2.5 mg/ml), 10 mM Tris-HCl pH 7.0, 200 mM NaCl, with and without DTT, 40,000 rpm, 20°C, absorbance at 280 nm, Sedfit; self-association, dimer and hexamer
[3] = biological target: the molecule itself; assay: SEC; gel filtration (Hiload 16/60 Superdex 75) of EvpC wild type and mutants at 2 mg/ml; self-association, hexamer

B1: EvpC from Edwardsiella tarda PPD130/91, wild type, recombinant with 6His tag at C terminus (pETMevpC) (natural protein)
chain: MAFDTYIKLDKVDGESTDDKHKKWIEVLGFAWGAGNECTMESGTQGLNTGKAMMSVLRVTKWMDCASVKLASAAVQGQNFPTLELEICTQAGDKFAFCIYKFTHVAVSSYQCSGATGGSDRPQETIDFAYKEVTWEYVPQDQNGKAGGKIGPEGWSLITNKKK
modifications: selenomethionine (cells grown in defined M9 medium supplemented with 25 mg/L SelMet)
notes: EvpC, Hcp homolog of the type VI secretion system (EVP cluster), Edwardsiella tarda PPD130/91; evpC gene amplified from genomic DNA; crystal model holds Ala2 to Lys163; K161-K163 are called the C-terminal residues and the model ends at Lys163, so the whole protein (163 residues) is likely. pETM is a pET32 derivative; no other vector-derived residues are told; also called wild type EvpC; Hcp …
[1]
  stoichiometry N: 12
[2]
  stoichiometry N: 2 and 6

B2: EvpC D4A E15A double mutant, 6His tag at C terminus (pETMevpC D4AE15A) (natural protein)
chain: MAFATYIKLDKVDGASTDDKHKKWIEVLGFAWGAGNECTMESGTQGLNTGKAMMSVLRVTKWMDCASVKLASAAVQGQNFPTLELEICTQAGDKFAFCIYKFTHVAVSSYQCSGATGGSDRPQETIDFAYKEVTWEYVPQDQNGKAGGKIGPEGWSLITNKKK
notes: EvpC, Edwardsiella tarda PPD130/91, with D4 and E15 substituted with Ala; The text speaks only of 'double' mutants for the gel filtration; source: expressed (pETM plasmid)
[3]
  stoichiometry N: 6

B3: EvpC D4A E26A double mutant, 6His tag at C terminus (pETMevpC D4AE26A) (natural protein)
chain: MAFATYIKLDKVDGESTDDKHKKWIAVLGFAWGAGNECTMESGTQGLNTGKAMMSVLRVTKWMDCASVKLASAAVQGQNFPTLELEICTQAGDKFAFCIYKFTHVAVSSYQCSGATGGSDRPQETIDFAYKEVTWEYVPQDQNGKAGGKIGPEGWSLITNKKK
notes: EvpC, Edwardsiella tarda PPD130/91, with D4 and E26 substituted with Ala; The text speaks only of 'double' mutants for the gel filtration; source: expressed (pETM plasmid)
[3]
  stoichiometry N: 6

B4: EvpC E15A E26A double mutant, 6His tag at C terminus (pETMevpC E15AE26A) (natural protein)
chain: MAFDTYIKLDKVDGASTDDKHKKWIAVLGFAWGAGNECTMESGTQGLNTGKAMMSVLRVTKWMDCASVKLASAAVQGQNFPTLELEICTQAGDKFAFCIYKFTHVAVSSYQCSGATGGSDRPQETIDFAYKEVTWEYVPQDQNGKAGGKIGPEGWSLITNKKK
notes: EvpC, Edwardsiella tarda PPD130/91, with E15 and E26 substituted with Ala; The text speaks only of 'double' mutants for the gel filtration; source: expressed (pETM plasmid)
[3]
  stoichiometry N: 6

B5: EvpC D4A E15A E26A triple mutant (natural protein)
chain: MAFATYIKLDKVDGASTDDKHKKWIAVLGFAWGAGNECTMESGTQGLNTGKAMMSVLRVTKWMDCASVKLASAAVQGQNFPTLELEICTQAGDKFAFCIYKFTHVAVSSYQCSGATGGSDRPQETIDFAYKEVTWEYVPQDQNGKAGGKIGPEGWSLITNKKK
notes: EvpC, Edwardsiella tarda PPD130/91, with D4, E15 and E26 substituted with Ala; also called N-terminal triple mutant; N-terminal mutant; source: expressed
[3]
  stoichiometry N: 6

B6: EvpC C-terminal deletion mutant (EvpC M1-N160), K161 K162 K163 deleted (domain or fragment)
chain: MAFDTYIKLDKVDGESTDDKHKKWIEVLGFAWGAGNECTMESGTQGLNTGKAMMSVLRVTKWMDCASVKLASAAVQGQNFPTLELEICTQAGDKFAFCIYKFTHVAVSSYQCSGATGGSDRPQETIDFAYKEVTWEYVPQDQNGKAGGKIGPEGWSLITN
notes: EvpC, Edwardsiella tarda PPD130/91, residues M1-N160, lacking the C-terminal K161, K162 and K163; also called EvpC 1-160; C-terminal mutant; source: expressed
[3]
  stoichiometry N: 6
